These results are taken from patent US20230248799A1, “COMBINATION THERAPY OF SUBSTANCE-P FOR MOBILIZATION OF HEMATOPOIETIC STEM CELLS” (ELPHIS CELL THERAPEUTICS, priority 2020, published 2023).

Data set [1] deals with immune cells in the blood. Kind of data set: Effect of SP on blood immune cells (CBC count, percentages in total leukocytes). The settings on record: rabbits, G-CSF 10 µg/kg intravenous twice; day 2.
Procedure: To confirm the effect of SP on the percentage of immune cells in blood, five (5) rabbits were prepared for each group. After administering SP (6.7 µg/kg) via ear vein twice, the percentages of immune cells in the blood of the same animals were compared for 3 days. G-CSF (10 µg/kg, JW Pham) was used at a conventional clinical dose and treated with the same regimen as that of SP (i.e., intravenous administration). After the administration, 1 ml of the blood was collected at one-day intervals, transferred to a tube containing EDTA and analyzed by using a diagnostic device.
Data set [2] has as its system hematopoietic stem cells in the blood. Description: Mobilization of hematopoietic stem cells by SP alone (HSC-CFU colony count of blood cells). The format is in vivo. The settings on record: rabbits; for level of hematopoietic stem cells in blood on the basis of 1X on day 0: intravenous (ear vein) twice, SP 6.7 µg/kg, G-CSF 10 µg/kg. How it is done: In order to confirm the effect of the drug administered in a normal physiological state alone, the effect of SP was tested using a normal group without wounds. This is because, in the case of injured animals, there are many other factors secreted by the wounds, and, thus, it is difficult to differentiate such factors from the effect of the administered drug, and especially because both SP and G-CSF are endogenous substances in the body.
To confirm the effect of SP alone on mobilization of hematopoietic stem cell, five (5) rabbits were prepared for each group. SP (6.7 µg/kg, sigma Aldrich) was administered twice via Ear vein, and the levels of hematopoietic stem cells in the blood of the same animals for 3 days were compared.
After injection of the drug, 5 ml of blood was collected once a day, put into a 15 ml tube (Falcon), and diluted twice by adding PBS (Welgene). To isolate blood cells, each of 5 ml Ficoll-Paque (Amersham) was placed in a new tube, and diluted blood was placed on top of it. The tubes were carefully handled so as not to mix the Ficoll layer and blood layer, and, after the blood layers were completely put in the tubes, centrifugation (813 g, Megafuge 8R, Thermo Scientific) was performed for 20 minutes. After centrifugation, the layers were separated, resulting in a total of four layers. The uppermost layer was plasma, the second layer was the blood cell layer excluding erythrocytes, the third layer was Ficoll, and the bottom layer was the erythrocyte layer. Among them, only the blood cell layer was separated and put into a tube, and PBS was then added thereto to centrifuge same. 5×10^6 blood cells were placed in a 35 mm plate and cultured in HSC-CFU media (Hematopoietic stem cells-colony forming unit media, purchased from Miltenyi). While the cells were cultured in the initial state for 2 weeks without exchanging the media, the number of colonies was observed every day and finally counted.

B1: G-CSF: recombinant granulocyte colony stimulating factor, a glycoprotein stimulating neutrophil progenitor cells and mature neutrophils (protein, UniProt P09919 31-207, looked up)
Granulocyte …: TPLGPASSLPQSFLLKCLEQVRKIQGDGAALQEKLVSECATYKLCHPEELVLLGHSLGIPWAPLSSCPSQALQLAGCLSQLHSGLFLYQGLLQALEGISPELGPTLDTLQLDVADFATTIWQQMEELGMAPALQPTQGAMPAFASAFQRRAGGVLVASHLQSFLEVSYRVLRHLAQP
Turning to B1, the “increase of the percentage of neutrophils in the blood” value in data set [1] is recorded as “about 65%”. Also, the “level of hematopoietic stem cells in blood on the basis of 1X on day 0” value in data set [2] (day 1) is on record as 2 X; in data set [2] (day 2) it was 2.5 X; in data set [2] (day 3), 0.6 X. The “effect on mobilization of hematopoietic stem cells (in words)” value in data set [2] (intravenous twice, followed for 3 days, FIG. 1) is reported as “negligible effect on mobilization of hematopoietic stem cells”.
